From IntAct's records for PubMed 14673118 come the findings set out here.

Sequences and labels used below:
B1: Thioredoxin (Synechocystis sp. (strain PCC 6803 / Kazusa)), P52231 (parent)
chain: MSATPQVSDASFKEDVLDSELPVLVDFWAPWCGPCRMVAPVVDEISQQYEGKVKVVKLNTDENPNTASQYGIRSIPTLMIFKGGQRVDMVVGAVPKTTLASTLEKYL
partner: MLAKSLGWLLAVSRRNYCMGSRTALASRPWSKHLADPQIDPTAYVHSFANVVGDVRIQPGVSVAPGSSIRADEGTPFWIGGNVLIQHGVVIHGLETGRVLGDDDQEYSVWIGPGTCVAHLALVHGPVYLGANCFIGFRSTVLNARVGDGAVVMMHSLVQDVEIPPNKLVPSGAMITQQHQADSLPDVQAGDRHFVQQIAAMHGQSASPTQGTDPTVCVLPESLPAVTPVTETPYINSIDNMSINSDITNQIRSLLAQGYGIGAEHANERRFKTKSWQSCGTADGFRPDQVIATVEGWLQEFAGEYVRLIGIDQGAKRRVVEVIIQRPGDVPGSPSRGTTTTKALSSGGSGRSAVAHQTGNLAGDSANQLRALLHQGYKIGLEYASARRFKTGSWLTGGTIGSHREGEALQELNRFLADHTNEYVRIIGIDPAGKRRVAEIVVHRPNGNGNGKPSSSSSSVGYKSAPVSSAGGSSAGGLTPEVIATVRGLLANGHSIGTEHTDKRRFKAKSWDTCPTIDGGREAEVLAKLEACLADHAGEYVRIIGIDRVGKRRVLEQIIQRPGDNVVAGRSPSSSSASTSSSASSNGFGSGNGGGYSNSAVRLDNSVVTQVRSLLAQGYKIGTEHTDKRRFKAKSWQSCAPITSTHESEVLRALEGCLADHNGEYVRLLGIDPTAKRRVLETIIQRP
B2: Thioredoxin (Synechocystis sp. (strain PCC 6803 / Kazusa)), P52231 (parent)
chain: B1 chain
partner: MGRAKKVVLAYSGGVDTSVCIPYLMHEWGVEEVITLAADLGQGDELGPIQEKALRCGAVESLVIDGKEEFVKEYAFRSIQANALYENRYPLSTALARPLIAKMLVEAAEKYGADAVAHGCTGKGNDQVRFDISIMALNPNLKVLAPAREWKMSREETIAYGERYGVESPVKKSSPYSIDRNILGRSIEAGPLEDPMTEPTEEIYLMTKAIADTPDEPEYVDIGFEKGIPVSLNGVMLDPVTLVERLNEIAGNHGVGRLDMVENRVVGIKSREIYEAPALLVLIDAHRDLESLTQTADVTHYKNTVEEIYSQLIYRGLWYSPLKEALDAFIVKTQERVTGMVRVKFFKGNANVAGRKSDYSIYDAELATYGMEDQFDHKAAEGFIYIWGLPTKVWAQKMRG
B3: Thioredoxin (Synechocystis sp. (strain PCC 6803 / Kazusa)), P52231 (parent)
chain: B1 chain
partner: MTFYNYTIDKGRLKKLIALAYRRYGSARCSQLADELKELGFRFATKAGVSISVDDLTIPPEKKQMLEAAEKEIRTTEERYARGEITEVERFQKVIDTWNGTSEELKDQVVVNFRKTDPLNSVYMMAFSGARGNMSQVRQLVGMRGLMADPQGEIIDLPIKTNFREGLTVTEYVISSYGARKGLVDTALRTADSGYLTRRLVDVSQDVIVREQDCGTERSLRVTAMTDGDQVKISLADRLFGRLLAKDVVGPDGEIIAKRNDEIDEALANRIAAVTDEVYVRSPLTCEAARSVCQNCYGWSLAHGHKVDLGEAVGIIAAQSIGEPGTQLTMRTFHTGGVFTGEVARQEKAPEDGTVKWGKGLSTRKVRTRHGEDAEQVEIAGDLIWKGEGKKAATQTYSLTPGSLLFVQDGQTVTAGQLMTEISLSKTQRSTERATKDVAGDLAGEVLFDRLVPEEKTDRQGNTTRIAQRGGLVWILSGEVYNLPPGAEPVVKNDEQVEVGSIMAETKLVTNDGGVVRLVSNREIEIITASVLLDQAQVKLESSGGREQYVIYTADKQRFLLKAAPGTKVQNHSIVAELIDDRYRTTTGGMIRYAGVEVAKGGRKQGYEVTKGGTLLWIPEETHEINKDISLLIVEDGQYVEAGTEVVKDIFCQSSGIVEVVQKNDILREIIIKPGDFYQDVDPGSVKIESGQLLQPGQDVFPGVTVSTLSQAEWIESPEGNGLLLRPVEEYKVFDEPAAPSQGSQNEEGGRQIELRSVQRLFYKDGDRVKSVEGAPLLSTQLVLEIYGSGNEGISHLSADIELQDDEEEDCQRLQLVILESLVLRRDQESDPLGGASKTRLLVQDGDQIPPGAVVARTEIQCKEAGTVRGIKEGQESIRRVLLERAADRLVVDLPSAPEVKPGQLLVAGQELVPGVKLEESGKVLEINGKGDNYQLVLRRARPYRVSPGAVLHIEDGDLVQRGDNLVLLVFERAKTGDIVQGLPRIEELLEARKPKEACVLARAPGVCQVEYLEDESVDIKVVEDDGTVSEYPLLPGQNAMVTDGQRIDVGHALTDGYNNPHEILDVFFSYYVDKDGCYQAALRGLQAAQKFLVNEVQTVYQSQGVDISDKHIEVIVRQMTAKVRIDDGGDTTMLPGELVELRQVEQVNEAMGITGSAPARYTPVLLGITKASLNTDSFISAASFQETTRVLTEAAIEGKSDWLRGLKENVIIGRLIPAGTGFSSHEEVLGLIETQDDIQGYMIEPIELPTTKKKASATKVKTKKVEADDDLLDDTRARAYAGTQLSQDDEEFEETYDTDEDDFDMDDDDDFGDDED
B4: Thioredoxin (Synechocystis sp. (strain PCC 6803 / Kazusa)), P52231 (parent)
chain: B1 chain
partner: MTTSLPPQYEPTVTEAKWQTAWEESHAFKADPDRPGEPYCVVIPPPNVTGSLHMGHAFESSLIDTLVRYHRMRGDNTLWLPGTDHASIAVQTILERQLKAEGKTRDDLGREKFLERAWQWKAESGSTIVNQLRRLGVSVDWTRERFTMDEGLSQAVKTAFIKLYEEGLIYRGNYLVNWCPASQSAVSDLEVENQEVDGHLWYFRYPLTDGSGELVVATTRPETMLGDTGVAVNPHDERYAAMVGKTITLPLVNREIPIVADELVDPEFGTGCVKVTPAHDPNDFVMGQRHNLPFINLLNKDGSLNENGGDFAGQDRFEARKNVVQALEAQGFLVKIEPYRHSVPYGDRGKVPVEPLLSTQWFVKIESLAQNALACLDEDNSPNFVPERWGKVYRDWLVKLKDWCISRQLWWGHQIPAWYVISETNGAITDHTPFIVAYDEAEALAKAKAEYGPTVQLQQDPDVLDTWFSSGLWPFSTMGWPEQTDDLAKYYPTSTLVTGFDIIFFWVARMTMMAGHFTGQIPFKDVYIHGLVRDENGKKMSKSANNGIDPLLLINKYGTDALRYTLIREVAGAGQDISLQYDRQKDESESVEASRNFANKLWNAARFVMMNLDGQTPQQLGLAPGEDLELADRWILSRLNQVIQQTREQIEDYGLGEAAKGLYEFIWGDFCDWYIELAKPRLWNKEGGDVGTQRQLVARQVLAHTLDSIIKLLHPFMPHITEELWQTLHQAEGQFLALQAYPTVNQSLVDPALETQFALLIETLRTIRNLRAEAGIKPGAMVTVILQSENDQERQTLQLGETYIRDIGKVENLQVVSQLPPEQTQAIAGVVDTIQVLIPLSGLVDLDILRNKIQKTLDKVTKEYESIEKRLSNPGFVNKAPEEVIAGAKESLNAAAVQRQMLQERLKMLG
B5: Thioredoxin (Synechocystis sp. (strain PCC 6803 / Kazusa)), P52231 (parent)
chain: B1 chain
partner: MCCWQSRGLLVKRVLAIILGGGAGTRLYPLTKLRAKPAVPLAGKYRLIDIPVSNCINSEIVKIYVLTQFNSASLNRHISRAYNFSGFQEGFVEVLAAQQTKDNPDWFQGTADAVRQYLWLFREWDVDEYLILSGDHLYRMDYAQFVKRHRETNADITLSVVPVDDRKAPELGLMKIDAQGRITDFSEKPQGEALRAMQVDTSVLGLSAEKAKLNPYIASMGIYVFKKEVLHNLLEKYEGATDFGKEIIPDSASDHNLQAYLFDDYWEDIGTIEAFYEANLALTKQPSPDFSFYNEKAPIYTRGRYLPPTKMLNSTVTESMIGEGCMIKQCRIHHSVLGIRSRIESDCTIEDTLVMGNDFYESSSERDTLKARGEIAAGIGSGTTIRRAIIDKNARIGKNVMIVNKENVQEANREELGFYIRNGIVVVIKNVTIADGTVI

In the first experiment the parent is B1. The conditions noted are these: with ccmm_syny3 ccmM.
Consider MSATPQVSDASFKEDVLDSELPVLVDFWAPWCGPSRMVAPVVDEISQQYEGKVKVVKLNTDENPNTASQYGIRSIPTLMIFKGGQRVDMVVGAVPKTTLASTLEKYL, for which the “effect of a mutation on the interaction” value was “increasing interaction”.

Variants of B2 are the subject of the next experiment. The conditions noted are these: with assy_syny3 argG.
Take MSATPQVSDASFKEDVLDSELPVLVDFWAPWCGPSRMVAPVVDEISQQYEGKVKVVKLNTDENPNTASQYGIRSIPTLMIFKGGQRVDMVVGAVPKTTLASTLEKYL: the “effect of a mutation on the interaction” value was “increasing interaction”.

Variants of B3 are the subject of another experiment. The conditions noted are these: with rpoc2_syny3 rpoC2, P73334.
For MSATPQVSDASFKEDVLDSELPVLVDFWAPWCGPSRMVAPVVDEISQQYEGKVKVVKLNTDENPNTASQYGIRSIPTLMIFKGGQRVDMVVGAVPKTTLASTLEKYL, the “effect of a mutation on the interaction” value was “increasing interaction”.

Variants of B4 are the subject of the next experiment. The settings on record: with syv_syny3 valS.
Regarding MSATPQVSDASFKEDVLDSELPVLVDFWAPWCGPSRMVAPVVDEISQQYEGKVKVVKLNTDENPNTASQYGIRSIPTLMIFKGGQRVDMVVGAVPKTTLASTLEKYL, the “effect of a mutation on the interaction” value is “increasing interaction”.

The variants in the next experiment derive from B5. The conditions noted are these: with glgc_syny3 glgC.
Consider MSATPQVSDASFKEDVLDSELPVLVDFWAPWCGPSRMVAPVVDEISQQYEGKVKVVKLNTDENPNTASQYGIRSIPTLMIFKGGQRVDMVVGAVPKTTLASTLEKYL, for which the “effect of a mutation on the interaction” value is on record as “increasing interaction”.
